From paper PMC5056442

Target: BamE (E. coli) (UniProt P0A937)
Assay: SEC + native MS; purified BamABCDE; SDS-PAGE, gel filtration (Superdex200 10/300 GL, TBS with 0.05% DDM, 21 °C) and non-covalent nanoESI-MS named together for the molar ratio

Sequence of UniProt P0A937 (P0A937 20-113): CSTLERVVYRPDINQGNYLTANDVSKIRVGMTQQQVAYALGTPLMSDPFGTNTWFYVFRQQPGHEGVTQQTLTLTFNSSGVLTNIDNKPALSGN

stoichiometry N: 1 molar ratio
Substance: BamB (from UniProt P77774 20-392) (natural protein)
